The results in this text go back to patent US20130267686A1 (HOFFMAN LA ROCHE, published 2013).

A value given as a limit tells only on which side of the number the result lay.

Holding throughout (experiment): SPR (Biacore)
For orientation: SPR reads the build-up and loss of mass on a sensor chip optically.

For assay [1], the target named is T1, HER3 (UniProt P21860 20-643, limits assumed).
T1 construct: Antigen as used in Biacore; also called ErbB3

Assay [2] deals with T2, cMet (UniProt P08581 25-932, limits assumed).
T2 construct: Antigen as used in Biacore
T2 sequence (P08581 25-932 limits assumed): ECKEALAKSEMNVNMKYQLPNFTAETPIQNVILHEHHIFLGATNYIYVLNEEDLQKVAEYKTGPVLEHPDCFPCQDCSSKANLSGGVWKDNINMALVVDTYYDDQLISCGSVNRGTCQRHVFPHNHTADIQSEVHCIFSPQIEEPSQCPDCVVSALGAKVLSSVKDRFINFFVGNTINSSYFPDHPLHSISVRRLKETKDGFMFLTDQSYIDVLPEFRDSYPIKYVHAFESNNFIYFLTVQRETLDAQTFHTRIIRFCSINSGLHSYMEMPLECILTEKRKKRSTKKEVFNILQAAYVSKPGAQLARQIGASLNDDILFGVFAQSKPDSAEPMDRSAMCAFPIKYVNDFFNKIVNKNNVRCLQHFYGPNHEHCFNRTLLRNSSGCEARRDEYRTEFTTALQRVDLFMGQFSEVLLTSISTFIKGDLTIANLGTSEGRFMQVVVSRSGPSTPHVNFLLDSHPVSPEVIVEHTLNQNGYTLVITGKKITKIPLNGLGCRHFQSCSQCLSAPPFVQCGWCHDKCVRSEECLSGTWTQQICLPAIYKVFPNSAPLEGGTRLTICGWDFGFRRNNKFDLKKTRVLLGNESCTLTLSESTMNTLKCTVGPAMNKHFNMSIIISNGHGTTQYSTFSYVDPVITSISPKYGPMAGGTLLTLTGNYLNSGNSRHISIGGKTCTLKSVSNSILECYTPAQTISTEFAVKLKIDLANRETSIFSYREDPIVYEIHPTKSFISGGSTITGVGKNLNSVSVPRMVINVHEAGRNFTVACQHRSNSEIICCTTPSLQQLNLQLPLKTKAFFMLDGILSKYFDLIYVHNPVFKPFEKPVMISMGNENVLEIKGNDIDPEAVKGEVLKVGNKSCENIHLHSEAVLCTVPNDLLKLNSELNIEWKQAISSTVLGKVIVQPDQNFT

The target in assay [3] is T2, cMet. The source holds these as a separate data set.

B1: Her3_MetSS_KHSS_FS1 (protease cleavage during expression) (bispecific antibody)
heavy 1: not shown
heavy 2: not shown
chain: ALGGGGSGGGGSDIQMTQSPSSLSASVGDRVTITCKSSQSLLYTSSQKNYLAWYQQKPGKAPKLLIYWASTRESGVPSRFSGSGSGTDFTLTISSLQPEDFATYYCQQYYAYPWTFGCGTKVEIKR
light: DIQMTQTTSSLSASLGDRVTISCRARQDISNYLNWYQRKPDGTVKLLIYYTSRLHSGVPSRFSGSGSGTDYSLTISNLEQEDIATYFCQQGNTFPWTFGGGTKLEIKRTVAAPSVFIFPPSDEQLKSGTASVVCLLNNFYPREAKVQWKVDNALQSGNSQESVTEQDSKDSTYSLSSTLTLSKADYEKHKVYACEVTHQGLSSPVTKSFNRGEC
notes: Trivalent Her3-cMet bispecific: full length anti-Her3 IgG with knobs-into-holes, cMet dsFv (VHCys44/VLCys100) at the C-termini; Arg/Lys residues before the cleavage site were removed
One may read the Kd as a measure of binding affinity in units of concentration. A higher Kd goes with weaker binding. For orientation: koff means the first-order rate constant of dissociation. Higher therefore signals a short-lived complex. As a reminder, the kon is the rate constant with which the complex forms. In assay [1], B1 registered a dissociation constant Kd of 2.05 nM, a koff of 0.000338 s⁻¹ and a kon of 165000 M⁻¹ s⁻¹. For the same molecule, in assay [2], the Kd was found to be 6.05 nM, the koff was 0.000188 s⁻¹ and the kon turned out to be 31200 M⁻¹ s⁻¹.

B2: Her3_MetSS_KHSS_PreSci (purified intermediate) (bispecific antibody, human IgG1, kappa)
heavy 1: not shown
heavy 2: not shown
light: DIQMTQTTSSLSASLGDRVTISCRARQDISNYLNWYQRKPDGTVKLLIYYTSRLHSGVPSRFSGSGSGTDYSLTISNLEQEDIATYFCQQGNTFPWTFGGGTKLEIKRTVAAPSVFIFPPSDEQLKSGTASVVCLLNNFYPREAKVQWKVDNALQSGNSQESVTEQDSKDSTYSLSSTLTLSKADYEKHKVYACEVTHQGLSSPVTKSFNRGEC
notes: also called restricted dsFv module; double-tethered dsFv
Turning to B2, in assay [3], the “fold reduced affinity against the Wildtype Fab” value is greater than 20 fold. In assay [1], binding was characterised by a dissociation constant (Kd) of 2.4 nM, the koff was 0.000414 s⁻¹ and the kon was 172000 M⁻¹ s⁻¹. In addition, in assay [2], binding was characterised by a dissociation constant (Kd) of 369 nM, the koff is 0.000197 s⁻¹ and the kon is 533 M⁻¹ s⁻¹.

B3: Her3_MetSS_KHSS_PreSci_digested (after purification and protease cleavage) (bispecific antibody)
heavy 1: not shown
heavy 2: not shown
chain: GPSGGGGSGGGGSDIQMTQSPSSLSASVGDRVTITCKSSQSLLYTSSQKNYLAWYQQKPGKAPKLLIYWASTRESGVPSRFSGSGSGTDFTLTISSLQPEDFATYYCQQYYAYPWTFGCGTKVEIKR
light: DIQMTQTTSSLSASLGDRVTISCRARQDISNYLNWYQRKPDGTVKLLIYYTSRLHSGVPSRFSGSGSGTDYSLTISNLEQEDIATYFCQQGNTFPWTFGGGTKLEIKRTVAAPSVFIFPPSDEQLKSGTASVVCLLNNFYPREAKVQWKVDNALQSGNSQESVTEQDSKDSTYSLSSTLTLSKADYEKHKVYACEVTHQGLSSPVTKSFNRGEC
notes: the VL stays attached through the dsFv disulfide
With B3, the “fold improved affinity against the restricted form” value in assay [3] was greater than 30 fold. In addition, in assay [1], the Kd amounted to 2.02 nM, the koff amounted to 0.000356 s⁻¹ and the kon came out at 176000 M⁻¹ s⁻¹. In assay [2], this molecule displayed a Kd of 8.35 nM, a koff of 0.000203 s⁻¹ and a kon of 24300 M⁻¹ s⁻¹.

B4: Her3_MetSS_KHSS_FS2 (protease cleavage during expression) (bispecific antibody)
heavy 1: not shown
heavy 2: not shown
chain: SLGGGGSGGGGSDIQMTQSPSSLSASVGDRVTITCKSSQSLLYTSSQKNYLAWYQQKPGKAPKLLIYWASTRESGVPSRFSGSGSGTDFTLTISSLQPEDFATYYCQQYYAYPWTFGCGTKVEIKR
light: DIQMTQTTSSLSASLGDRVTISCRARQDISNYLNWYQRKPDGTVKLLIYYTSRLHSGVPSRFSGSGSGTDYSLTISNLEQEDIATYFCQQGNTFPWTFGGGTKLEIKRTVAAPSVFIFPPSDEQLKSGTASVVCLLNNFYPREAKVQWKVDNALQSGNSQESVTEQDSKDSTYSLSSTLTLSKADYEKHKVYACEVTHQGLSSPVTKSFNRGEC
notes: As m1 but with furin site variant 2
Regarding B4, in assay [2], the Kd is 7.05 nM, the koff came to 0.000193 s⁻¹ and the kon was 27400 M⁻¹ s⁻¹.
